{"source": "paper doi:10.1101/2024.07.14.603434", "about": "(bioRxiv, 2024)", "biological_target": "the molecule itself", "assay": "SEC"}
{"protein": "NagS (SCO4393), N-acetylglucosamine-6-phosphate dehydratase (enzyme, Streptomyces coelicolor, UniProt Q9K3V1 1-251, looked up) MSDHKPAGQFLDAAIDLLRRVRDEEADSIEAAGTLLADTVQNGGRLFAFGAGHSSLAAQDVVYRAGGLALMNLLTVPGVVGIDVMPATLGSALERVDGLASAVLDSSPLRAGDALVIISLSGRNALPVEMAMHARALGLRVIGVTSVAYASQTTSRHASGTFLKDHCDIVLDSKIAVGDAELTLDTVPAPFAPASTVVTAALMQAVTATAAATLADRGIEPPLLRSGNVDGGHEWNARVLEQYGERIFYRR", "values": [{"measurement": "stoichiometry N", "result": 2}]}
